The supplement of paper PMC12764529
± gives the half width of the 95% confidence interval.

Columns and labels:
[1] = folding stability dG unfold from trypsin proteolysis; higher = more stable
Method: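 Folding stability of de novo designed mini-proteins (<80 aa, no Cys; designed by TrROS, TrMRF, ProteinMPNN and the joint model) was measured by cDNA display proteolysis with trypsin and chymotrypsin. Each protease was used at 11 concentrations in a threefold dilution series plus a no-protease condition. K50 was inferred by Bayesian fitting of sequencing counts, and dG unfold was derived against a sequence-predicted unfolded-state K50 (Tsuboyama et al. method). Sequences shown include variable-length N-terminal GS-type padding (SAGGSAGG...) inside a display construct carrying a PA tag. Rows were kept only if the AF2 dimer inter-PAE was >15, to exclude likely homo-oligomers.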

[2] = folding stability dG unfold (combined trypsin and chymotrypsin); higher = more stable
How it was run: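 Designed mini-proteins with no cysteine and under 80 residues were kept only if AlphaFold2 dimer inter-PAE was above 15. In a PA-tagged cDNA display construct, they were digested with trypsin and chymotrypsin and then sequenced. K50 was inferred by Bayesian fitting of counts, and unfolding free energy was derived per protease or combined against a sequence-predicted unfolded-state K50 and a shared folded-state K50.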

| Sequence | folding stability dG unfold [1] [kcal/mol] | folding stability dG unfold [2] [kcal/mol] |
| --- | --- | --- |
| AAVIPTPTAEPVKVETLSTEVSPSLFPSPAAGGPRVLRTVVTTKTTVAVQTEDAWVEVETTTTTTEVLPPES [r1_112_JUSTAS] | -0.546 ± 0.21 | < -1 |
| MEFTITVEYDEETNELTVTITYPGYTIEIRIDPDGRIRVEVRMDPGMSEEERKRMQELAEELAKKLEEALKS [r1_468_TrROS_Hall] | 4.33 ± 0.69 | > 6 |
| SAGEELLREIAKKLNLPEGAEIVKVEIKVEEKDGRLRITITITVRNKETGELKTIEIEIEIELPEEEEESAG [r5_94_TrROS_Hall] | 3.9 ± 0.27 | 4.01 ± 0.43 |
| SAGGANLKIDIERHPGNGNINATIKFDGEEITVPATLSDIEEIIDEIIRVKPVPYYEKDGKLKPHWASAGGS [r8_332_TrROS] | -0.781 ± 0.19 | < -1 |
| SAGGAVTSVSPGNGTTTVTVPISVPGSPVTLNIPTPDATLTPDPSGTVTVTLPPNGTYSITITGPRSDSAGG [r19_227_JUSTAS] | -0.688 ± 0.16 | < -1 |
| SAGGDPGAEKIGTKTYPVGDKELTIETYRLPDPDELKVVVTDPTDGKTTPITVSLSEPPNIPVAELLSAGGS [r16_768_JUSTAS] | -0.276 ± 0.16 | < -1 |
| SAGGETEVVETNASPAELAERVAEALAAGREVTVTLPDGTVLDAGPDLADLPADTPVRLEFTPAVAASAGGS [r16_31_JUSTAS] | 0.841 ± 0.032 | 0.257 ± 0.17 |
| SAGGFKITEVEKDEKKGYPWVSIRIPPKSTLKKLKNMPGPVRIHNPEPGQWIHMPVDDPEEFLDKLLKSAGG [r13_604_TrROS] | 0.274 ± 0.18 | -0.516 ± 0.94 |
| SAGGHRMDIQFDGSPDKIEEIQKKIHKKWPDYKVDDIEVNPGNPDQVTIRIEMDNGIPMNEIQEALMSAGGS [r16_180_TrROS] | -1.32 ± 0.22 | < -1 |
| SAGGKIREVEIEEFDPDNGWVMITFNMPPEDLDKMKPIKLPGIKDVHWDPGNDHISASMPLEEAKEASAGGS [r16_614_TrROS] | -0.121 ± 0.17 | -0.5 ± 0.41 |
| SAGGLDSAPPVEVKVEVEEEKTKDPNSDSEVTKYKITVTTTVGGTPIVTEEESIVYKKPDGTIIVEKKSAGG [r19_260_JUSTAS] | -0.403 ± 0.28 | -0.242 ± 0.96 |
| SAGGMEVVENPGGNLKIIEKEPEGPEFVKTTTTTIKTFKNPGGSTSSTITTTTTTVKISKSKNPELLSAGGS [r16_802_JUSTAS] | -0.742 ± 0.26 | -0.784 ± 0.3 |
| SAGGMKIRLDNGKEIEINQSPGYMSIQIRPPDDGKKREYPFPMPDGENSMEDFVNEIANHGRITEIEPSAGG [r13_579_TrROS] | 0.522 ± 0.075 | -0.249 ± 0.23 |
| SAGGMKTTFTITHPDAEKAREALEKAVPSDLDVEPEFTPTPDGYTTTVTVPAEHPEVAAAALAAALASAGGS [r16_43_JUSTAS] | 0.0621 ± 0.09 | < -1 |
| SAGGMKVEVVETPTSLQIVTTTISTEKIPFNDVTLTTVTTEVKTIPLPEKPPVGLPYFDPEGKPLLLSAGGS [r8_46_JUSTAS] | -0.0171 ± 0.07 | -0.424 ± 0.18 |
| SAGGMMKIKITFADGTTKEIELPEDVTEVTITYDEKTGKVTITVRLKNGETKTITIPADKITKIEIESAGGS [r16_658_TrROS_Hall] | 5.39 ± 0.7 | > 6 |
| SAGGMNPDNFKPVRTYTLPFDGHKIEVEVWEPPNGNPLIPIQLEDDNGKPKGPQWIPPDQIDENGKILSAGG [r13_447_TrROS] | 0.343 ± 0.091 | -0.213 ± 0.28 |
| SAGGMPEGDFWVRIRIPVPKYEMERDPNDPNDYKMEPEWKPKEIWLPVKSPEALDEFRENGFEIEPFSAGGS [r8_482_TrROS] | 0.251 ± 0.091 | -0.137 ± 0.16 |
| SAGGSAGGSAGGSMTRVFVRKPDYWLEVEEYPDPKNPDRIRLTVKKKIPLSEVTPEELASAGGSAGGSAGGS [r4_316_JUSTAS] | -0.0403 ± 0.26 |  |
| SAGGSAGGSPRYQIPFEFPNGRNLYIQIERDPEEGQVKVDIMFPDGGTKEITVPPGEEIKIPWSAGGSAGGS [r12_922_TrROS] | -0.659 ± 0.62 |  |
